# In the Immune Epitope Database (IEDB):
# Tests used:
# HLA-A*26:01 = assay: IEDB peptide-MHC binding, purified MHC/direct/fluorescence; filed as Kd, often an IC50 or EC50 that approximates it; ≥ and ≤ were set here for values at or beyond the usual limits of such assays
# HLA-B*51:01 = assay: as above
# HLA-B*15:01 = assay: as above
# HLA-B*15:17 = assay: as above
# HLA-B*39:01 = assay: as above
# HLA-B*57:01 [1] = assay: as above
# HLA-A*24:03 = assay: as above
# HLA-B*27:03 = assay: as above
# HLA-A*03:01 = assay: as above
# HLA-B*18:01 = assay: as above
# HLA-B*46:01 = assay: as above
# HLA-B*57:01 [2] = assay: IEDB peptide-MHC binding, purified MHC/competitive/radioactivity; filed as Kd, often an IC50 or EC50 that approximates it; ≥ and ≤ were set here for values at or beyond the usual limits of such assays
# HLA-B*58:01 [3] = assay: as above
# HLA-B*40:01 = assay: IEDB peptide-MHC binding, purified MHC/direct/fluorescence; filed as Kd, often an IC50 or EC50 that approximates it; ≥ and ≤ were set here for values at or beyond the usual limits of such assays; conditions: source organism: Giardia intestinalis
# HLA-B*07:02 = assay: as above
# HLA-B*48:01 = assay: as above; conditions: source organism: Giardia intestinalis
# HLA-A*01:01 = assay: as above
# HLA-B*27:05 = assay: as above
# HLA-B*58:01 [4] = assay: as above
# HLA-A*31:01 = assay: as above
# HLA-A*02:01 = assay: as above
# HLA-A*11:01 = assay: as above
# HLA-A*68:02 = assay: as above
# HLA-B*08:03 = assay: as above
# HLA-A*69:01 = assay: as above
# HLA-B*15:09 = assay: as above; conditions: source organism: Francisella tularensis subsp. tularensis FSC033
# HLA-B*08:02 = assay: as above; conditions: source organism: Francisella tularensis subsp. tularensis FSC033
# HLA-A*02:06 = assay: IEDB peptide-MHC binding, purified MHC/competitive/fluorescence; filed as Kd, often an IC50 or EC50 that approximates it; ≥ and ≤ were set here for values at or beyond the usual limits of such assays; conditions: source organism: Francisella tularensis subsp. tularensis FSC198
# HLA-A*29:02 = assay: IEDB peptide-MHC binding, purified MHC/direct/fluorescence; filed as Kd, often an IC50 or EC50 that approximates it; ≥ and ≤ were set here for values at or beyond the usual limits of such assays; conditions: source organism: Giardia lamblia ATCC 50803
# HLA-A*02:19 = assay: as above
# HLA-A*02:11 = assay: as above
# HLA-A*02:03 = assay: as above
# HLA-A*02:12 = assay: as above
# HLA-B*35:01 = assay: as above
# HLA-A*02:16 = assay: as above; conditions: source organism: Vibrio vulnificus CMCP6
# HLA-B*44:02 = assay: as above; conditions: source organism: Haemophilus influenzae
# HLA-B*08:01 = assay: as above; conditions: source organism: Haemophilus influenzae
# HLA-C*12:03 = assay: as above; conditions: source organism: Yersinia pestis Nepal516
# [5] = source organism: Giardia lamblia ATCC 50803
# [6] = source organism: Dengue virus 4 Philippines/H241/1956
# [7] = source organism: Giardia intestinalis
# [8] = source organism: Francisella tularensis subsp. tularensis
# [9] = source organism: Dengue virus 2 Jamaica/1409/1983
# [10] = source organism: Campylobacter jejuni
# [11] = source organism: Vibrio vulnificus CMCP6
# [12] = source organism: Dengue virus 3 Martinique/1243/1999
# [13] = source organism: Vibrio vulnificus
# [14] = source organism: Haemophilus influenzae
sequence,measurement,setting,value
PPPPLQHPI,Kd,HLA-A*26:01; [5],≥ 20 µM
same,Kd,HLA-B*51:01; [5],≥ 5 µM
same,Kd,HLA-B*15:01; [5],≥ 20 µM
same,Kd,HLA-B*15:17; [5],≥ 20 µM
same,Kd,HLA-B*39:01; [5],≥ 20 µM
same,Kd,HLA-B*57:01 [1]; [5],≥ 20 µM
same,Kd,HLA-A*24:03; [5],≥ 20 µM
same,Kd,HLA-B*27:03; [5],≥ 20 µM
same,Kd,HLA-A*03:01; [5],≥ 20 µM
same,Kd,HLA-B*18:01; [5],≥ 20 µM
same,Kd,HLA-B*46:01; [5],≥ 20 µM
LSSRATWAKN,Kd,HLA-B*57:01 [2]; [6],1.88 µM
same,Kd,HLA-B*58:01 [3]; [6],0.156 µM
INTLESMMK,Kd,HLA-B*40:01,≥ 20 µM
same,Kd,HLA-B*07:02; [7],≥ 20 µM
same,Kd,HLA-B*48:01,≥ 20 µM
same,Kd,HLA-B*15:01; [7],≥ 20 µM
same,Kd,HLA-A*01:01; [7],≥ 20 µM
same,Kd,HLA-B*15:17; [7],≥ 20 µM
same,Kd,HLA-B*57:01 [1]; [7],≥ 20 µM
same,Kd,HLA-B*27:05; [7],≥ 20 µM
same,Kd,HLA-B*58:01 [4]; [7],≥ 20 µM
same,Kd,HLA-A*31:01; [7],≥ 20 µM
same,Kd,HLA-A*02:01; [7],≥ 20 µM
same,Kd,HLA-A*03:01; [7],≥ 20 µM
same,Kd,HLA-B*18:01; [7],≥ 20 µM
same,Kd,HLA-A*11:01; [7],12 µM
same,Kd,HLA-B*46:01; [7],≥ 20 µM
same,Kd,HLA-A*68:02; [7],≥ 20 µM
same,Kd,HLA-B*08:03; [5],≥ 20 µM
RYSNFAWYF,Kd,HLA-B*07:02; [8],≥ 20 µM
same,Kd,HLA-B*15:01; [8],≥ 20 µM
same,Kd,HLA-A*01:01; [8],≥ 20 µM
same,Kd,HLA-B*15:17; [8],≥ 20 µM
same,Kd,HLA-B*57:01 [1]; [8],≥ 20 µM
same,Kd,HLA-A*69:01; [8],≥ 20 µM
same,Kd,HLA-A*24:03; [8],0.365 µM
same,Kd,HLA-B*58:01 [4]; [8],≥ 20 µM
same,Kd,HLA-A*02:01; [8],≥ 20 µM
same,Kd,HLA-B*15:09,≥ 20 µM
same,Kd,HLA-B*18:01; [8],≥ 20 µM
same,Kd,HLA-B*08:02,≥ 20 µM
same,Kd,HLA-A*11:01; [8],≥ 20 µM
same,Kd,HLA-A*68:02; [8],≥ 20 µM
same,Kd,HLA-B*08:03; source organism: Francisella tularensis subsp. tularensis FSC033,≥ 20 µM
same,Kd,HLA-A*02:06,≥ 20 µM
LLIQGLKTV,Kd,HLA-A*26:01; [5],≥ 20 µM
same,Kd,HLA-A*29:02,≥ 20 µM
same,Kd,HLA-B*51:01; [5],≥ 20 µM
same,Kd,HLA-B*15:17; [5],≥ 20 µM
same,Kd,HLA-B*39:01; [5],≥ 20 µM
same,Kd,HLA-B*57:01 [1]; [5],≥ 20 µM
same,Kd,HLA-A*24:03; [5],≥ 20 µM
same,Kd,HLA-B*27:03; [5],≥ 20 µM
same,Kd,HLA-A*02:01; [5],0.002 µM
same,Kd,HLA-A*03:01; [5],≥ 20 µM
same,Kd,HLA-B*18:01; [5],≥ 20 µM
same,Kd,HLA-B*46:01; [5],≥ 20 µM
TTEDMLAVW,Kd,HLA-B*57:01 [2]; [9],0.0301 µM
SFWFFHPPY,Kd,HLA-B*07:02; [10],≥ 20 µM
same,Kd,HLA-A*26:01; [10],≥ 20 µM
same,Kd,HLA-B*51:01; [10],≥ 20 µM
same,Kd,HLA-B*15:01; [10],4.99 µM
same,Kd,HLA-B*39:01; [10],≥ 20 µM
same,Kd,HLA-A*02:19; [10],≥ 20 µM
same,Kd,HLA-B*57:01 [1]; [10],≥ 20 µM
same,Kd,HLA-A*69:01; [10],≥ 20 µM
same,Kd,HLA-A*02:11; [10],≥ 20 µM
same,Kd,HLA-B*27:03; [10],≥ 20 µM
same,Kd,HLA-A*02:03; [10],≥ 20 µM
same,Kd,HLA-A*02:12; [10],≥ 20 µM
same,Kd,HLA-B*35:01; [10],0.351 µM
same,Kd,HLA-A*03:01; [10],≥ 20 µM
same,Kd,HLA-B*46:01; [10],≥ 20 µM
same,Kd,HLA-A*68:02; [10],≥ 20 µM
MPIAAAIGT,Kd,HLA-B*07:02; [11],1 µM
same,Kd,HLA-A*26:01; [11],≥ 20 µM
same,Kd,HLA-B*15:01; [11],≥ 20 µM
same,Kd,HLA-A*02:19; [11],≥ 20 µM
same,Kd,HLA-B*57:01 [1]; [11],≥ 20 µM
same,Kd,HLA-A*24:03; [11],≥ 20 µM
same,Kd,HLA-A*02:11; [11],≥ 20 µM
same,Kd,HLA-B*27:03; [11],≥ 20 µM
same,Kd,HLA-A*02:03; [11],≥ 20 µM
same,Kd,HLA-A*02:12; [11],≥ 20 µM
same,Kd,HLA-A*02:01; [11],≥ 20 µM
same,Kd,HLA-B*35:01; [11],0.003 µM
same,Kd,HLA-A*02:16,≥ 20 µM
same,Kd,HLA-A*03:01; [11],≥ 20 µM
same,Kd,HLA-B*18:01; [11],≥ 20 µM
same,Kd,HLA-B*46:01; [11],≥ 20 µM
KAWMVHRQW,Kd,HLA-B*57:01 [2]; [12],0.00127 µM
same,Kd,HLA-B*58:01 [3]; [12],0.00108 µM
KTRANDWDF,Kd,HLA-B*57:01 [2]; [9],0.0221 µM
IMDEPTSSL,Kd,HLA-B*44:02,≥ 20 µM
same,Kd,HLA-B*07:02; [13],≥ 5 µM
same,Kd,HLA-A*26:01; [14],≥ 20 µM
same,Kd,HLA-B*15:01; [13],0.173 µM
same,Kd,HLA-A*01:01; [13],14.3 µM
same,Kd,HLA-B*08:01,≥ 20 µM
same,Kd,HLA-A*69:01; [13],0.0649 µM
same,Kd,HLA-B*27:05; [14],≥ 20 µM
same,Kd,HLA-B*58:01 [4]; [14],≥ 20 µM
same,Kd,HLA-A*31:01; [14],≥ 20 µM
same,Kd,HLA-A*02:01; [13],0.0267 µM
same,Kd,HLA-B*35:01; [13],2.07 µM
same,Kd,HLA-A*03:01; [14],≥ 20 µM
same,Kd,HLA-A*11:01; [14],≥ 20 µM
same,Kd,HLA-C*12:03,≥ 20 µM
TASGINMCTL,Kd,HLA-B*57:01 [2]; [12],5.59 µM
same,Kd,HLA-B*58:01 [3]; [12],0.103 µM
